How the values were obtained:
RNAse B = RNAse B (UniProt P61823)
uteroferrin = uteroferrin (UniProt P09889)
Sequence of UniProt P09889 (P09889 22-340): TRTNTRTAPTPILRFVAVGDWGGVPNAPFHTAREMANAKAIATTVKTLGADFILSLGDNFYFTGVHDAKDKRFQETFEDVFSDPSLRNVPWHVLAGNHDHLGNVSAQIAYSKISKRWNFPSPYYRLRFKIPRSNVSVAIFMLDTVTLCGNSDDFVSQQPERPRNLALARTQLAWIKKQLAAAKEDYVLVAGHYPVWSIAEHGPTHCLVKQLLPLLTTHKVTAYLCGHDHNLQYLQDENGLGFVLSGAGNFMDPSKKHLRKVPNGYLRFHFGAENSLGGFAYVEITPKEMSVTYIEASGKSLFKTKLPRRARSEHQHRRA

Sequence of UniProt P61823 (P61823 27-150): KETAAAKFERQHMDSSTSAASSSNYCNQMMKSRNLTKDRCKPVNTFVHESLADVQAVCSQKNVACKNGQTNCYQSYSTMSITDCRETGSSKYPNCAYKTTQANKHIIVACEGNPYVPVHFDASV

bovine GlcNAc-phosphotransferase (UDP-N-acetylglucosamine: lysosomal enzyme N-Acetylglucosamine-1-phosphotransferase)
Km (transfer of GlcNAc-1-P to glycoprotein acceptor) (cathepsin D): Kms below 20 µM | Km (transfer of GlcNAc-1-P to glycoprotein acceptor) (RNAse B): the Km was not reached at the solubility limit of the protein (at 600 µM) | Km (transfer of GlcNAc-1-P to glycoprotein acceptor) (uteroferrin): Kms below 20 µM
